Experimental data: PMC6382870

Assays:
[1] = target: MrNVPd double-mutant Y293A/D295A (Macrobrachium rosenbergii nodavirus (MrNV)); experiment: SEC; P-domains without the SUMO-tag; column and buffer not stated
[2] = target: PvNVPd (250-368) (Penaeus vannamei nodavirus (PvNV)); experiment: as above
[3] = target: MrNVPd (246-371) (Macrobrachium rosenbergii nodavirus (MrNV)); experiment: as above
[4] = target: MrNVPd double-mutant K327A/D329A (Macrobrachium rosenbergii nodavirus (MrNV)); experiment: as above
[5] = target: PvNV capsid protein (1-368) (Penaeus vannamei nodavirus (PvNV)); experiment: cryo-EM structure; T = 1 PvNV-LP particles (~22-24 nm) picked from the same sample, icosahedral symmetry, 3.7 Å
[6] = target: PvNV capsid protein (1-368) (Penaeus vannamei nodavirus (PvNV)); experiment: cryo-EM structure; T = 3 PvNV-LP particles (~29-35 nm) picked from the assembled sample, 6 mg/mL, icosahedral symmetry, 3.5 Å

Substance: MrNVPd double-mutant Y293A/D295A (domain or fragment)
- stoichiometry N [1]: 2

Substance: PvNVPd (250-368) (domain or fragment)
- stoichiometry N [2]: 2

Substance: MrNVPd (246-371) (domain or fragment)
- stoichiometry N [3]: 2

Substance: MrNVPd double-mutant K327A/D329A (domain or fragment)
- stoichiometry N [4]: 2

Substance: PvNV capsid protein (1-368) (natural protein)
- stoichiometry N [5]: 60
- stoichiometry N [6]: 180 copies
